Experimental data reported in patent US20220169720.

Columns and labels:
[1] = tested on: Rubicon (RUN domain protein as Beclin-1 interacting and cysteine-rich containing), wild-type
[2] = tested on: Rubicon mutant's 117-189 amino acids (phosphor-null mutants, single serine/threonine substituted with alanine)

Chain of Rubicon (RUN domain protein as Beclin-1 interacting and cysteine-rich containing), wild-type (chain, as listed by the source): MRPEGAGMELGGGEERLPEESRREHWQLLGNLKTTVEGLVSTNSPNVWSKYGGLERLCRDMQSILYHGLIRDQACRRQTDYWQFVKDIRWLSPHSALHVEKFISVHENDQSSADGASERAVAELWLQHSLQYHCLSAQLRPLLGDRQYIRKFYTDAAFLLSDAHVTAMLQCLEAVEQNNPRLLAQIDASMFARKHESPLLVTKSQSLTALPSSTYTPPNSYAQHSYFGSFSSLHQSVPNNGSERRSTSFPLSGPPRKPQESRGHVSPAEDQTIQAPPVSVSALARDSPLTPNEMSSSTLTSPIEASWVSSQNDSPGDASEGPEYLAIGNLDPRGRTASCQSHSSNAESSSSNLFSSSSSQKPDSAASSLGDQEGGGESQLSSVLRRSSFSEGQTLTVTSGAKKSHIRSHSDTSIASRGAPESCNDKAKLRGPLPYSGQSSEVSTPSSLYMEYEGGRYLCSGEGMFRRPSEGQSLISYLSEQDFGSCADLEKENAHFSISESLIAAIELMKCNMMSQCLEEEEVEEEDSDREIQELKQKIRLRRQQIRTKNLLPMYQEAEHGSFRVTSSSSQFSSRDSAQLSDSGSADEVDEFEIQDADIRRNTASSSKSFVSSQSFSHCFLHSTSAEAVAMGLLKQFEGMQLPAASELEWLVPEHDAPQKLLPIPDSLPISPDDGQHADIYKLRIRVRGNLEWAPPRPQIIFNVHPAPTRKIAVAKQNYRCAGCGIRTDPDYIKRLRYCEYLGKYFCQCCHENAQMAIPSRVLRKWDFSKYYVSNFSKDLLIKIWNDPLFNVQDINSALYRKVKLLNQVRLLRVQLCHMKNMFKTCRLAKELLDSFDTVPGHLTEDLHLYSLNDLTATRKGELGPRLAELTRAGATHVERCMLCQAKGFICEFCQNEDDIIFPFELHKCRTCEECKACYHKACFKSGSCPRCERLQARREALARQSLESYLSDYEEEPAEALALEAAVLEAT

For “Leucine-rich repeat kinase 2 (LRRK2), wild-type”, the “extent of Rubicon phosphorylation by LRRK2 kinase (kinase assay with wild-type or phosphor-null mutant Rubicon as substrate)” value [1] was “determined T166 and S189 as the consensus LRRK2-specific phosphosites”, the “pT166-Rubicon by ELISA in human neurons transiently over-expressing wild-type (WT) LRRK2” value [1] was 12% and 26% increase in pT166-Rubicon respectively compared to control and the “pT166-Rubicon by ELISA in human neurons with endogenous LRRK2 knocked down” value [1] was 32.4% decrease in pT166-Rubicon compared to control. The “amount of generated ADP as a by-product of LRRK2 kinase activity” value [2] was “Rubicon mutant's 117-189 amino acids significantly decreased LRRK2 kinase activity”.

In the case of mutant LRRK2-G2019S, the “pT166-Rubicon by ELISA in human neurons transiently over-expressing mutant LRRK2-G2019S” value [1] is reported as 12% and 26% increase in pT166-Rubicon respectively compared to control.
